The source of these data is article PMC9584609.

The term stoichiometry N denotes the number of molecules, sites or subunits per partner or assembly.

This assay addresses T1, Kir2.1 tagged with mVenus and PAmCherry (human), P63252.
T1 chain: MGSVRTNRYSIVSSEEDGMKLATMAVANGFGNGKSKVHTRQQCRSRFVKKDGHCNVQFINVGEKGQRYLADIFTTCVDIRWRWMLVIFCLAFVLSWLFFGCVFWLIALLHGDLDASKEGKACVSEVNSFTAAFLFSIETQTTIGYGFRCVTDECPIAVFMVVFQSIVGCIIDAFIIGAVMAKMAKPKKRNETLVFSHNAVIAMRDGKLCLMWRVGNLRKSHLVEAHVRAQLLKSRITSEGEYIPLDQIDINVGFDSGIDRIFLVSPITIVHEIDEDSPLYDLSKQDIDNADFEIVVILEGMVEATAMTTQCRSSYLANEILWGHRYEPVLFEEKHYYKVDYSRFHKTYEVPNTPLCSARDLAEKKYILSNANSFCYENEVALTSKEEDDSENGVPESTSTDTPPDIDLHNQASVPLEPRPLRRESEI
Kind of assay: native gel or EMSA; high-resolution clear native electrophoresis (hrCNE); lysate of transfected HEK293T cells in 0.1 M sodium phosphate with 0.5% digitonin or 20 mM DDM; 4-14% acrylamide gradient gel run at 4 °C; mVenus fluorescence scanned; VGLUTs and sialin with and without PNGaseF. As to conditions: remark: other sources report otherwise. (In EMSA bound probe runs differently from free probe, usually more slowly.)

B1: Kir2.1 tagged with mVenus and PAmCherry, P63252 1-427 (natural protein)
chain: MGSVRTNRYSIVSSEEDGMKLATMAVANGFGNGKSKVHTRQQCRSRFVKKDGHCNVQFINVGEKGQRYLADIFTTCVDIRWRWMLVIFCLAFVLSWLFFGCVFWLIALLHGDLDASKEGKACVSEVNSFTAAFLFSIETQTTIGYGFRCVTDECPIAVFMVVFQSIVGCIIDAFIIGAVMAKMAKPKKRNETLVFSHNAVIAMRDGKLCLMWRVGNLRKSHLVEAHVRAQLLKSRITSEGEYIPLDQIDINVGFDSGIDRIFLVSPITIVHEIDEDSPLYDLSKQDIDNADFEIVVILEGMVEATAMTTQCRSSYLANEILWGHRYEPVLFEEKHYYKVDYSRFHKTYEVPNTPLCSARDLAEKKYILSNANSFCYENEVALTSKEEDDSENGVPESTSTDTPPDIDLHNQASVPLEPRPLRRESEI
B1 yielded a stoichiometry N of 4.
